Results as given in patent publication US20070286861A1, “Immunoglobulins” (published 2007).
Substitutions are numbered along the chain they refer to. Like-named read-outs stand apart in the source and are kept apart here. Values belong to the binder of their own block, whether it stands above or below them.

Key:
[1] = target: T1, cynomolgus monkey OSM (cOSM) (cynomolgus monkey); test: gp130 inhibition ELISA, CHO supernatant; legend: NA: inhibition is less than 50%
T1 chain: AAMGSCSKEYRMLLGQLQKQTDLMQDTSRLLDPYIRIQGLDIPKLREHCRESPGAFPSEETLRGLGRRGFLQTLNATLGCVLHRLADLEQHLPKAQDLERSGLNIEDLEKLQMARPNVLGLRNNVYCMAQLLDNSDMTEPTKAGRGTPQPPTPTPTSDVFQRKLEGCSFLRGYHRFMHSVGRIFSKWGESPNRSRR

[2] = target: T2, human Oncostatin M (hOSM) (human); test: as above
T2 chain: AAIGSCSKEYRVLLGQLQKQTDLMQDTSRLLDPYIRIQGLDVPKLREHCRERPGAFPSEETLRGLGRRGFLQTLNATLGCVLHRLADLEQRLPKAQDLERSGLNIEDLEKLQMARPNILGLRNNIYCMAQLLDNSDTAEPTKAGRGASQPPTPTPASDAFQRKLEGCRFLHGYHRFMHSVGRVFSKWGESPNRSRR

[3] = target: T3, glycosylated human OSM produced in CHO cells (human)
T3 sequence (chain, glycosylated (CHO cell glycosylated)): T2 chain

[4] = target: T2, human Oncostatin M (hOSM)
[5] = target: T4, glycosylated human OSM produced in CHO cells (human, glycosylated (CHO cell glycosylated)); test: gp130 inhibition ELISA (Table 4; OSM taken as CHO produced hOSM of FIG. 17)
T4 chain: T2 chain

[6] = target: T2, human Oncostatin M (hOSM); test: gp130 inhibition ELISA (antibody pre-incubated with OSM; OSM bound to plate-coated gp130-Fc detected)
[7] = target: T1, cynomolgus monkey OSM (cOSM); test: gp130 inhibition ELISA
[8] = target: T2, human Oncostatin M (hOSM); test: gp130 inhibition ELISA
[9] = target: T1, cynomolgus monkey OSM (cOSM); test: gp130 ELISA
[10] = target: T2, human Oncostatin M (hOSM); test: gp130 ELISA
[11] = target: T1, cynomolgus monkey OSM (cOSM); test: gp130 inhibition ELISA, CHO supernatant
[12] = target: T2, human Oncostatin M (hOSM); test: gp130 inhibition ELISA, CHO supernatant
[13] = target: T1, cynomolgus monkey OSM (cOSM)
[14] = target: T2, human Oncostatin M (hOSM)

B1: humanised 15E10 antibody B1L1 (antibody, V domains shown)
VH: QVQLVESGGGVVQPGRSLRLSCAASGFSLTNYGVHWVRQAPGKGLEWVAVIWRGGSTDYNAAFMSRFTISRDNSKNTLYLQMNSLRAEDTAVYYCARSPNSNFYWYFDVWGRGTLV
VL: EIVLTQSPATLSLSPGERATLSCSGSSSVSYMYWYQQKPGQAPRLLIYDTSNLASGIPARFSGSGSGTDFTLTISNLEPEDFAVYYCQQWSSYPPTFGQGTKLEIK
% inhibition [1]: < 50% | % inhibition [2]: < 50%

B2: 15E10 murine antibody (antibody, V domains shown)
VH: QVQLKQSGPGLVQPSQSLSITCTVSGFSLTNYGVHWVRQSPGKGLEWLGVIWRGGSTDYNAAFMSRLSITKDNSRSQVFFKMNSLQADDTAIYYCAKSPNSNFYWYFDVWGTGTTVTVSS
VL: QIVLTQSPTIMSASPGEKVTMTCSGSSSVSYMYWYQEKPGSSPRLLIEDTSNLASGVPARFSGSGSGTSYSLTISRMEAEDAATYYCQQWSSYPPTFGSGTKLEIK
IL-6 release from KB cells (KB cell assay), IC50 [3]: 0.053 µg/mL | IL-6 release from KB cells (KB cell assay), IC50 [4]: 0.195 µg/mL | IC50 [5]: 0.009 µg/mL | IC50 [6]: 0.059 µg/mL

B3: 15E10 chimaeric antibody (antibody, V domains shown)
VH: B2 VH
VL: B2 VL
IL-6 release from KB cells (KB cell assay), IC50 [3]: 0.079 µg/mL | IC50 [7]: 0.06 µg/mL | IC50 [8]: 0.07 µg/mL | IL-6 release from KB cells (KB cell assay), IC50 [4]: 0.11 µg/mL | IC50 [5]: 0.019 µg/mL | IC50 [6]: 0.036 µg/mL

B4: 10D3 murine antibody (antibody, V domains shown)
VH: EVQLQQSGPELVKPGASVKISCKASGYIFTDYNMDWVKQSHGKKLEWIGDINPNNGGTIDNQKFKDKATLTVDKSSSTAYMELRSLTSEDTAVYYCARGIYYYGSHYFDYWGQGTTLTVSS
VL: QIVLTQSPAIMSASPGEKVTMTCSATSSVSVMHWFQKKSGTSPKRWIYDTSKLASGVPTRFSGSGSGTSYSLTISSMEAEDTATYYCQQWSSNPLTFGSGTKLELK
IL-6 release from KB cells (KB cell assay), IC50 [4]: 0.114 µg/mL | IC50 [6]: 0.107 µg/mL

B5: 10D3 chimaeric antibody (antibody, V domains shown)
VH: B4 VH
VL: B4 VL
IC50 [9]: 0.246 µg/mL | IC50 [10]: 0.032 µg/mL | IL-6 release from KB cells (KB cell assay), IC50 [4]: 0.107 µg/mL | IC50 [6]: 0.057 µg/mL

B10: Humanised antibody 10D3 DLE (antibody, V domains shown)
VH: EVQLVQSGAEVKKPGASVKVSCKASGYIFTDYNMDWVRQAPGQKLEWIGDINPNNGGTIDNQKFKDRATLTVDKSTSTVYMELSSLRSEDTAVYYCARGIYYYGSHYFDYWGQGTLVTVSS
VL: EIVLTQSPSSLSASVGDRVTITCSATSSVSVMHWFQKKPGKAPKRWIYDTSKLASGVPSRFSGSGSGTDYTLTISSLQPEDFATYYCQQWSSNPLTFGGGTKVDIKR
IC50 [9]: 0.059 µg/mL | IC50 [10]: 0.021 µg/mL | IL-6 release from KB cells (KB cell assay), IC50 [13]: 0.07 µg/mL | IL-6 release from KB cells (KB cell assay), IC50 [14]: 0.205 µg/mL

Second part, the binder after the results:

IL-6 release from KB cells (KB cell assay), IC50 [3]: 0.123 µg/mL | IC50 [5]: 0.035 µg/mL
B6: humanised 15E10 antibody B3L2 (wild type Fc) (antibody, V domains shown)
VH: QVQLVESGGGVVQPGRSLRLSCAASGFSLTNYGVHWVRQAPGKGLEWVAVIWRGGSTDYNAAFMSRFTISKDNSKNTLYLQMNSLRAEDTAVYYCAKSPNSNFYWYFDVWGRGTLVTVSS
VL: EIVLTQSPATLSLSPGERATLSCSGSSSVSYMYWYQQKPGQAPRLLIEDTSNLASGIPARFSGSGSGTDYTLTISNLEPEDFAVYYCQQWSSYPPTFGQGTKLEIKR

IC50 [11]: 0.04 µg/mL | IC50 [12]: 0.048 µg/mL
B7: humanised 15E10 antibody B4L2 (antibody, V domains shown)
VH: B6 VH with F67L
VL: B6 VL

IC50 [11]: 0.11 µg/mL | IC50 [12]: 0.334 µg/mL
B8: humanised 15E10 antibody B1L2 (antibody, V domains shown)
VH: B6 VH with K71R, K97R
VL: B1 VL with Y48E, F70Y

% inhibition [2]: < 50% | IC50 [11]: 0.167 µg/mL
B9: humanised 15E10 antibody B4L1 (antibody, V domains shown)
VH: B6 VH with F67L
VL: B1 VL
